From US7939307B2, “Deletion mutant of multi-copper oxidase and its use in dyeing” (National University Corporation Kanazawa University, priority 2005, dated 2011)

Assays:
[1] = Oxidative polymerization activity for various substrates (Test Example 2); format: biochemical; conditions: pH 5.5
Experimental: For substrates other than catechin, lignin (derived from rice), and lignin (derived from conifer), each substrate was dissolved in DMSO, and then dissolved in an ion-exchange water, to give a 1 mM DMSO (1.0%) aqueous solution.
For catechin, lignin (derived from rice), and lignin (derived from conifer), each substrate was dissolved in DMSO, and then dissolved in an ion-exchange distilled water, to give a 2 mg/mL DMSO (1.0%) aqueous solution.
(§1) For the following method, an acetate buffer solution (pH 5.5) was used as the buffer solution.
0.88 mL of a 0.1 M buffer solution and 0.1 mL of the substrate solution were mixed in a cuvette (1.0 mL quartz cell, manufactured by SHIMADZU), 0.02 mL of an aqueous solution of mCueO (1) was added thereto, and mixed by inversion. The change in absorbance at each wavelength (measurement wavelength shown in Table 2) from 0 to 30 seconds was measured using a spectrophotometer (UV-2459, manufactured by SHIMADZU).
For comparison, the oxidative polymerization activity of wild-type CueO was measured in the same manner.

[2] = Oxidative polymerization activity for representative substrates of laccase (Test Example 1); format: biochemical; conditions: pH 5.5
Experimental: 2,6-dimethoxyphenol, p-phenylenediamine, 2,2′-azino-bis(3-ethylbenzothiazoline-6-sulfonate) (ABTS), 2-methoxyphenol, and catechol were dissolved in an ion-exchange distilled water, respectively, to each give a 50 mM aqueous solution.
4-hydroxyindole and p-aminophenol were dissolved in dimethylsulfoxide (DMSO), respectively, to each give a 50 mM DMSO solution.
o-aminophenol was dissolved in DMSO, and then dissolved in an ion-exchange distilled water, to give a 50 mM DMSO (10%)-aqueous solution.
1-nitroso-2-naphthol-3,6-disulfonic acid disodium (NNS) was dissolved in an ion-exchange distilled water to give a 5 mM aqueous solution.
Bilirubin was dissolved in DMSO to give a 0.5 mM DMSO solution.
Syringaldazine was dissolved in ethanol to give a 5 mM ethanol solution.
L-tyrosine was dissolved in a 0.1 M phosphate buffer solution (pH 6.5), to give a 1 mM solution.
as §1
For the substrates other than NNS and bilirubin, 0.88 mL of a 0.1 M buffer solution and 0.1 mL of the substrate solution were mixed in a cuvette (1.5 mL UV disposable cell, […], and mixed by inversion. The change in absorbance at each wavelength (measurement wavelength shown in Table 1) from 0 to 30 seconds was measured using a spectrophotometer (UV-2459, manufactured by SHIMADZU).
For NNS and bilirubin, 0.96 mL of a 0.1 M buffer solution and 0.02 mL of the substrate solution were mixed in a cuvette (1.5 mL UV disposable cell, manufactured by TOP), 0.02 mL of an aqueous solution of mCueO (1) was added thereto, and mixed by inversion. The change in absorbance at each wavelength (measurement wavelength shown in Table 1) from 0 to 30 seconds was measured using a spectrophotometer (UV-2459, manufactured by SHIMADZU).
For comparison, the oxidative polymerization activity of an enzyme prepared by adding a histidine tag to the C-terminus of wild-type mature CueO (SEQ ID NO: 8, hereinafter, simply referred to as ‘wild-type CueO’) was measured in the same manner. […] The change in absorbance in 30 seconds which is measured in the above manner was given in terms of change in absorbance in 1 minute (same applies below).

[3] = substrate o-Aminophenol, 420 nm
[4] = substrate p-Phenylenediamine, 470 nm

B1: Wild-type CueO: enzyme prepared by adding a histidine tag to the C-terminus of wild-type mature CueO derived from Escherichia coli (protein, listed as Escherichia coli)
chain: MQRRDFLKYSVALGVASALPLWSRAVFAAERPTLPIPDLLTTDARNRIQLTIGAGQSTFGGKTATTWGYNGNLLGPAVKLQRGKAVTVDIYNQLTEETTLHWHGLEVPGEVDGGPQGIIPPGGKRSVTLNVDQPAATCWFHPHQHGKTGRQVAMGLAGLVVIEDDEILKLMLPKQWGIDDVPVIVQDKKFSADGQIDYQLDVMTAAVGWFGDTLLTNGAIYPQHAAPRGWLRLRLLNGCNARSLNFATSDNRPLYVIASDGGLLPEPVKVSELPVLMGERFEVLVEVNDNKPFDLVTLPVSQMGMAIAPFDKPHPVMRIQPIAISASGALPDTLSSLPALPSLEGLTVRKLQLSMDPMLDMMGMQMLMEKYGDQAMAGMDHSQMMGHMGHGNMNHMNHGGKFDFHHANKINGQAFDMNKPMFAAAKGQYERWVISGVGDMMLHPFHIHGTQFRILSENGKPPAAHRAGWKDTVKVEGNVSEVLVKFNHDAPKEHAYMAHCHLLEHEDTGMMLGFTV
[1]; substrate 1,3-Dihydroxynaphthalene, 450 nm
  Activity (U): 2.53 U
[1]; substrate 1,5-Dihydroxynaphthalene, 470 nm
  Activity (U): 0.78 U
[1]; substrate 1-Naphthol, 405 nm
  Activity (U): 0.00 U
[1]; substrate 2,4-Diaminophenol dihydrochloride, 470 nm
  Activity (U): 69.83 U
[1]; substrate 2,5-Diaminotoluene sulfate, 470 nm
  Activity (U): 44.55 U
[1]; substrate 2,6-Dihydroxynaphthalene, 405 nm
  Activity (U): 0.00 U
[1]; substrate 2,6-Dimethoxy-4-metylphenol, 405 nm
  Activity (U): 0.00 U
[1]; substrate 2,6-Dimethoxyphenol, 470 nm
  Activity (U): 1.43 U
[1]; substrate 2-Chloro-1,4-phenylenediamine, 450 nm
  Activity (U): 3.10 U
[1]; substrate 2-Methoxyphenol, 450 nm
  Activity (U): 0.00 U
[1]; substrate 4-Hydroxyindole, 405 nm
  Activity (U): 3.33 U
[1]; substrate 5-Aminoorthocresol, 405 nm
  Activity (U): 0.00 U
[1]; substrate 5-Hydroxyindole, 405 nm
  Activity (U): 0.00 U
[1]; substrate Catechin, 405 nm
  Activity (U): 0.00 U
[1]; substrate Catechol, 405 nm
  Activity (U): 0.00 U
[1]; substrate Gallic acid, 405 nm
  Activity (U): 1.78 U
[1]; substrate Hydroquinone, 405 nm
  Activity (U): 0.00 U
[1]; substrate Lignin (derived from conifer), 450 nm
  Activity (U): 0.00 U
[1]; substrate Lignin (derived from rice), 450 nm
  Activity (U): 0.00 U
[1]; substrate N,N-Dimethyl-p-phenylenediamine, 470 nm
  Activity (U): 59.35 U
[1]; substrate Propyl gallate, 405 nm
  Activity (U): 0.00 U
[1]; substrate Protocatechuic acid, 405 nm
  Activity (U): 0.00 U
[1]; substrate Pyrogallol, 405 nm
  Activity (U): 9.44 U
[1]; substrate Resorcinol, 405 nm
  Activity (U): 0.00 U
[1]; substrate Tolylene-3,4-diamine, 470 nm
  Activity (U): 0.00 U
[1]; substrate Trimethylhydroquinone, 405 nm
  Activity (U): 0.00 U
[1]; substrate m-Aminophenol, 405 nm
  Activity (U): 0.00 U
[1]; substrate m-Phenylenediamine, 405 nm
  Activity (U): 0.00 U
[1]; [3]
  Activity (U): 14.06 U
[1]; substrate o-Phenylenediamine, 430 nm
  Activity (U): 0.00 U
[1]; substrate p-Aminodiphenylamine, 470 nm
  Activity (U): 48.86 U
[1]; substrate p-Aminophenol, 405 nm
  Activity (U): 3.37 U
[1]; substrate p-Methylaminophenol sulfate, 470 nm
  Activity (U): 6.51 U
[1]; [4]
  Activity (U): 19.55 U
[2]; substrate 2-Methoxyphenol, 470 nm
  Activity (U): 0.00 U
[2]; substrate ABTS, 420 nm
  Activity (U): 40.22 U
[2]; substrate Bilirubin, 530 nm
  Activity (U): 0.53 U
[2]; substrate Catechol, 400 nm
  Activity (U): 0.00 U
[2]; substrate L-Tyrosine, 490 nm
  Activity (U): 0.00 U
[2]; substrate NNS, 490 nm
  Activity (U): 0.00 U
[2]; substrate Syringaldazine, 530 nm
  Activity (U): 4.73 U
[2]; [3]
  Activity (U): 14.06 U
[2]; substrate p-Aminophenol, 400 nm
  Activity (U): 3.37 U
[2]; [4]
  Activity (U): 9.70 U
